From IntAct's records for PubMed 25416956 come the findings set out here.

Sequences and labels used below:
B1: Keratin, type II cytoskeletal 2 epidermal (Homo sapiens), P35908 (parent)
chain: MSCQISCKSRGRGGGGGGFRGFSSGSAVVSGGSRRSTSSFSCLSRHGGGGGGFGGGGFGSRSLVGLGGTKSISISVAGGGGGFGAAGGFGGRGGGFGGGSSFGGGSGFSGGGFGGGGFGGGRFGGFGGPGGVGGLGGPGGFGPGGYPGGIHEVSVNQSLLQPLNVKVDPEIQNVKAQEREQIKTLNNKFASFIDKVRFLEQQNQVLQTKWELLQQMNVGTRPINLEPIFQGYIDSLKRYLDGLTAERTSQNSELNNMQDLVEDYKKKYEDEINKRTAAENDFVTLKKDVDNAYMIKVELQSKVDLLNQEIEFLKVLYDAEISQIHQSVTDTNVILSMDNSRNLDLDSIIAEVKAQYEEIAQRSKEEAEALYHSKYEELQVTVGRHGDSLKEIKIEISELNRVIQRLQGEIAHVKKQCKNVQDAIADAEQRGEHALKDARNKLNDLEEALQQAKEDLARLLRDYQELMNVKLALDVEIATYRKLLEGEECRMSGDLSSNVTVSVTSSTISSNVASKAAFGGSGGRGSSSGGGYSSGSSSYGSGGRQSGSRGGSGGGGSISGGGYGSGGGSGGRYGSGGGSKGGSISGGGYGSGGGKHSSGGGSRGGSSSGGGYGSGGGGSSSVKGSSGEAFGSSVTFSFR
partner: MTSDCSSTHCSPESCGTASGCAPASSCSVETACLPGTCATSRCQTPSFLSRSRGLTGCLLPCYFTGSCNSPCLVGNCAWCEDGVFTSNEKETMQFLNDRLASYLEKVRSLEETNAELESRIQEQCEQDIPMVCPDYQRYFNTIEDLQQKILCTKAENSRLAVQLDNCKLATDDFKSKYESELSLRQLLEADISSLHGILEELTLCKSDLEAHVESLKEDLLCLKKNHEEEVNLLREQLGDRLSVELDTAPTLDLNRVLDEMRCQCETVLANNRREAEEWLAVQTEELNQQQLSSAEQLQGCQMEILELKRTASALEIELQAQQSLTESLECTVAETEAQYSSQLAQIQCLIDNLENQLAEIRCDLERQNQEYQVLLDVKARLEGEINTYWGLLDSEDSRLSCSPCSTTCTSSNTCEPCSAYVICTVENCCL
B2: EF-hand domain-containing protein 1 (Homo sapiens), Q5JVL4 (parent)
chain: MVSNPVHGLPFLPGTSFKDSTKTAFHRSQTLSYRNGYAIVRRPTVGIGGDRLQFNQLSQAELDELASKAPVLTYGQPKQAPPADFIPAHVAFDKKVLKFDAYFQEDVPMSTEEQYRIRQVNIYYYLEDDSMSVIEPVVENSGILQGKLIKRQRLAKNDRGDHYHWKDLNRGINITIYGKTFRVVDCDQFTQVFLESQGIELNPPEKMALDPYTELRKQPLRKYVTPSDFDQLKQFLTFDKQVLRFYAIWDDTDSMYGECRTYIIHYYLMDDTVEIREVHERNDGRDPFPLLMNRQRVPKVLVENAKNFPQCVLEISDQEVLEWYTAKDFIVGKSLTILGRTFFIYDCDPFTRRYYKEKFGITDLPRIDVSKREPPPVKQELPPYNGFGLVEDSAQNCFALIPKAPKKDVIKMLVNDNKVLRYLAVLESPIPEDKDRRFVFSYFLATDMISIFEPPVRNSGIIGGKYLGRTKVVKPYSTVDNPVYYGPSDFFIGAVIEVFGHRFIILDTDEYVLKYMESNAAQYSPEALASIQNHVRKREAPAPEAESKQTEKDPGVQELEALIDTIQKQLKDHSCKDNIREAFQIYDKEASGYVDRDMFFKICESLNVPVDDSLVKELIRMCSHGEGKINYYNFVRAFSN
B3: Zinc finger protein 41 (Homo sapiens), P51814 (parent)
chain: MAANGDSPPWSPALAAEGRGSSCEVRRERTPEARIHSVKRYPDLSPGPKGRSSADHAALNSIVSLQASVSFEDVTVDFSKEEWQHLDPAQRRLYWDVTLENYSHLLSVGYQIPKSEAAFKLEQGEGPWMLEGEAPHQSCSGEAIGKMQQQGIPGGIFFHCERFDQPIGEDSLCSILEELWQDNDQLEQRQENQNNLLSHVKVLIKERGYEHKNIEKIIHVTTKLVPSIKRLHNCDTILKHTLNSHNHNRNSATKNLGKIFGNGNNFPHSPSSTKNENAKTGANSCEHDHYEKHLSHKQAPTHHQKIHPEEKLYVCTECVMGFTQKSHLFEHQRIHAGEKSRECDKSNKVFPQKPQVDVHPSVYTGEKPYLCTQCGKVFTLKSNLITHQKIHTGQKPYKCSECGKAFFQRSDLFRHLRIHTGEKPYECSECGKGFSQNSDLSIHQKTHTGEKHYECNECGKAFTRKSALRMHQRIHTGEKPYVCADCGKAFIQKSHFNTHQRIHTGEKPYECSDCGKSFTKKSQLHVHQRIHTGEKPYICTECGKVFTHRTNLTTHQKTHTGEKPYMCAECGKAFTDQSNLIKHQKTHTGEKPYKCNGCGKAFIWKSRLKIHQKSHIGERHYECKDCGKAFIQKSTLSVHQRIHTGEKPYVCPECGKAFIQKSHFIAHHRIHTGEKPYECSDCGKCFTKKSQLRVHQKIHTGEKPNICAECGKAFTDRSNLITHQKIHTREKPYECGDCGKTFTWKSRLNIHQKSHTGERHYECSKCGKAFIQKATLSMHQIIHTGKKPYACTECQKAFTDRSNLIKHQKMHSGEKRYKASD
B4: TERF1-interacting nuclear factor 2 (Homo sapiens), Q9BSI4 (parent)
chain: MATPLVAGPAALRFAAAASWQVVRGRCVEHFPRVLEFLRSLRAVAPGLVRYRHHERLCMGLKAKVVVELILQGRPWAQVLKALNHHFPESGPIVRDPKATKQDLRKILEAQETFYQQVKQLSEAPVDLASKLQELEQEYGEPFLAAMEKLLFEYLCQLEKALPTPQAQQLQDVLSWMQPGVSITSSLAWRQYGVDMGWLLPECSVTDSVNLAEPMEQNPPQQQRLALHNPLPKAKPGTHLPQGPSSRTHPEPLAGRHFNLAPLGRRRVQSQWASTRGGHKERPTVMLFPFRNLGSPTQVISKPESKEEHAIYTADLAMGTRAASTGKSKSPCQTLGGRALKENPVDLPATEQKENCLDCYMDPLRLSLLPPRARKPVCPPSLCSSVITIGDLVLDSDEEENGQGEGKESLENYQKTKFDTLIPTLCEYLPPSGHGAIPVSSCDCRDSSRPL
B5: Fructose-1,6-bisphosphatase 1 (Homo sapiens), P09467 (parent)
chain: MADQAPFDTDVNTLTRFVMEEGRKARGTGELTQLLNSLCTAVKAISSAVRKAGIAHLYGIAGSTNVTGDQVKKLDVLSNDLVMNMLKSSFATCVLVSEEDKHAIIVEPEKRGKYVVCFDPLDGSSNIDCLVSVGTIFGIYRKKSTDEPSEKDALQPGRNLVAAGYALYGSATMLVLAMDCGVNCFMLDPAIGEFILVDKDVKIKKKGKIYSLNEGYARDFDPAVTEYIQRKKFPPDNSAPYGARYVGSMVADVHRTLVYGGIFLYPANKKSPNGKLRLLYECNPMAYVMEKAGGMATTGKEAVLDVIPTDIHQRAPVILGSPDDVLEFLKVYEKHSAQ
partner: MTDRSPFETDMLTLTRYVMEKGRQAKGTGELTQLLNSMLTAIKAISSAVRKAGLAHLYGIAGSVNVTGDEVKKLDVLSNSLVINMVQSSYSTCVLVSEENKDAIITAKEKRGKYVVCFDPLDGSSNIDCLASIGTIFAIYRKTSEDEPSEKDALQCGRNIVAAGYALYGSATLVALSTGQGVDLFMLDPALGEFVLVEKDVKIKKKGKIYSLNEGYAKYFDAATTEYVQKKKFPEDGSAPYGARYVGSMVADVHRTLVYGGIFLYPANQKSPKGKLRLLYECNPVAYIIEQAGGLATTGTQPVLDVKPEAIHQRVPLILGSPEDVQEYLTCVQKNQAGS

The variants in the first experiment derive from B1. Particulars: with KRT40, Q6A162.
On to L484P, for which the “effect of a mutation on the interaction” value is given as “disrupting interaction”.

Variants of B1 are the subject of a further experiment. Particulars: with KRT40, Q6A162. The source holds these as a separate data set.
Consider I477N, for which the “effect of a mutation on the interaction” value was “disrupting interaction”.

The variants in the next experiment derive from B2. To be noted: with itf2_human TCF4, P15884.
Chain of itf2_human TCF4, P15884 (P15884 whole entry): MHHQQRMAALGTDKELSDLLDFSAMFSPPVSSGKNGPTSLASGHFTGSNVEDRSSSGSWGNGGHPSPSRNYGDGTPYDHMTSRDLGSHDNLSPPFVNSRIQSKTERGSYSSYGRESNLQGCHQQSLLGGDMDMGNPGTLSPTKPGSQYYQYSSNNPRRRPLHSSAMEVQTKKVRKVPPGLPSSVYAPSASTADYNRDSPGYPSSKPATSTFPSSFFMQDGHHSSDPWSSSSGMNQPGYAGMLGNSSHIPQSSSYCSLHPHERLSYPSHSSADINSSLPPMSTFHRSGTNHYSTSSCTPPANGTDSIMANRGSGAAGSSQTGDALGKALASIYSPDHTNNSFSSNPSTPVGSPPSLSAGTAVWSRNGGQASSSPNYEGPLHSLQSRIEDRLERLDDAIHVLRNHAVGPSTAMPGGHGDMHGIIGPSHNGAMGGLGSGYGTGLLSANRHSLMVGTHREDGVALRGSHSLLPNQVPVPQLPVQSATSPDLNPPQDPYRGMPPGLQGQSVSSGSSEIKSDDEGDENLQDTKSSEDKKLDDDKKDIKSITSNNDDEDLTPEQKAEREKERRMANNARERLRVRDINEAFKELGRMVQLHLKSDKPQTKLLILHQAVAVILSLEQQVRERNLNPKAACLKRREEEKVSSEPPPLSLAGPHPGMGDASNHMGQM
With A394S, the “effect of a mutation on the interaction” value is “disrupting interaction”.

The variants in the next experiment derive from B2. To be noted: with ikzf3_human IKZF3, Q9UKT9.
Chain of ikzf3_human IKZF3, Q9UKT9 (Q9UKT9 whole entry): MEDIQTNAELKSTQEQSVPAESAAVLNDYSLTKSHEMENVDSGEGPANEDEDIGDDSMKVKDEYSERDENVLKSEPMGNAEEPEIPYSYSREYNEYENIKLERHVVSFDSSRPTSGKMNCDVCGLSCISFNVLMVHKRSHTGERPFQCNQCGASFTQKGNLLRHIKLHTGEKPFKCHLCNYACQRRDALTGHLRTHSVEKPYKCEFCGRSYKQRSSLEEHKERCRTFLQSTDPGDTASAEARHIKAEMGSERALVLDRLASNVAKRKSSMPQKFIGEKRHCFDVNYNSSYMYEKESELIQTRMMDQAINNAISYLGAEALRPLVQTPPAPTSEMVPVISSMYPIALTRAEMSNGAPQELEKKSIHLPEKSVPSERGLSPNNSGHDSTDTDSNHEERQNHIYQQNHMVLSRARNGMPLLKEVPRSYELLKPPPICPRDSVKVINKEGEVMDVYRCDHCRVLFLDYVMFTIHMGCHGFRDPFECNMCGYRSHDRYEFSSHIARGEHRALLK
On to A394S, for which the “effect of a mutation on the interaction” value is recorded as “disrupting interaction”.

In another experiment the parent is B2. To be noted: with itf2_human TCF4, P15884. This is another data set of the same source.
Take T508R: the “effect of a mutation on the interaction” value was “disrupting interaction”.

The variants in a further experiment derive from B2. Particulars: with itf2_human TCF4, P15884. This is another data set of the same source.
As for P77T, the “effect of a mutation on the interaction” value was “disrupting interaction”.

The variants in the next experiment derive from B2. To be noted: with ikzf3_human IKZF3, Q9UKT9. This is another data set of the same source.
Regarding P77T, the “effect of a mutation on the interaction” value is “disrupting interaction”.

Variants of B2 are the subject of the next experiment. To be noted: with itf2_human TCF4, P15884. The source holds these as a separate data set.
R221H: the “effect of a mutation on the interaction” value was “disrupting interaction”.

In the next experiment the parent is B2. To be noted: with ikzf3_human IKZF3, Q9UKT9. The source holds these as a separate data set.
As to R221H, the “effect of a mutation on the interaction” value is recorded as “disrupting interaction”.

In another experiment the parent is B3. To be noted: with fam9b_human FAM9B.
Q111L: the “effect of a mutation on the interaction” value was “disrupting interaction”.

A further experiment covers variants of B4. To be noted: with acd_human ACD.
For the variant P236S, the “effect of a mutation on the interaction” value was “disrupting interaction”.

Variants of B5 are the subject of the next experiment. Particulars: with FBP2, O00757.
F194S: the “effect of a mutation on the interaction” value was “disrupting interaction”.

The variants in a further experiment derive from B5. To be noted: with FBP2, O00757. The source holds these as a separate data set.
With G260R, the “effect of a mutation on the interaction” value is recorded as “disrupting interaction”.
